Molecular target: human TNFR2 on the cell membrane (human) (UniProt P20333)
Assay: flow cytometry on human PBMC, CD3+ T cells

Sequence of human TNFR2 on the cell membrane (human) (P20333 23-461): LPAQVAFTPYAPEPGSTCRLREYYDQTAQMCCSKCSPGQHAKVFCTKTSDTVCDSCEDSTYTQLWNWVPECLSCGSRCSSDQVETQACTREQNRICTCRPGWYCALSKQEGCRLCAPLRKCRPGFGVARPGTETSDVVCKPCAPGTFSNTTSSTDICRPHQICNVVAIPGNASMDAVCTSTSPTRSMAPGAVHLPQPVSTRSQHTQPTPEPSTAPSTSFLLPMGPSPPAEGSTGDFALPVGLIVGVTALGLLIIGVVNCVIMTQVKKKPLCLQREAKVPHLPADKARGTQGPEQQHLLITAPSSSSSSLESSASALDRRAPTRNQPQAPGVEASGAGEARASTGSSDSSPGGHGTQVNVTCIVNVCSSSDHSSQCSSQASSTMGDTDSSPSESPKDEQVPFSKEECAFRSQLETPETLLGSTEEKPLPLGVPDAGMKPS

With Isotype Ctrl (antibody) the percent of cells in the upper right quadrant (Q1-UR, CD3+ and anti-human IgG Fc+) was 5.48%.

From patent US20240392024A1
